Patent US20040082509A1 (XIGEN S A, published 2004)

Biological target: recombinant JNK1α1 (UniProt P45983-2 1-384)
Experiment: cell-based or functional assay

Sequence of recombinant JNK1α1 (P45983 other isoform, or with tags, fused parts or gaps limits assumed): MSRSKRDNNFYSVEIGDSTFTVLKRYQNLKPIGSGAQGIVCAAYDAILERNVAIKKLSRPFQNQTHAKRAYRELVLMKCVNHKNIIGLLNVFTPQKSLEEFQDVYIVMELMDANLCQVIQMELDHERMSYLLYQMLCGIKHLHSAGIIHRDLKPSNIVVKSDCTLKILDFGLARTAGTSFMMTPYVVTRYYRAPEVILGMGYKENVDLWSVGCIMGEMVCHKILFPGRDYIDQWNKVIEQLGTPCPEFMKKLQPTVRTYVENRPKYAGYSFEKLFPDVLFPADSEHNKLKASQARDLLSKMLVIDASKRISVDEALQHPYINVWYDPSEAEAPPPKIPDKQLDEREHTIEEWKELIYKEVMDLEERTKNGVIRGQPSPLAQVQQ

B1: L-JBD20 peptide (20 amino acid minimal JNK-inhibitory sequence of JIP-IB1) (peptide)
peptide: RPKRPTTLNLFPQVPRSQDT
~1000 nM: IC50, phosphorylation of the JNK target ATF2 | IC50, phosphorylation of the JNK target IRS-1 | IC50, phosphorylation of the JNK target MADD | IC50, phosphorylation of the JNK target bcl-xl
